A short description of the data set: soluble on expression in E. coli; label from the status in PepcDB or PDB records.
For the sequence “MSTRKLNKVMVQPVNLIFRYLQNRTRVQIWLYEDVTHRLEGYIIGFDEFMNVVFDEAEEVNMKTKGRNKIGRILLKGDNITLIHAAQQEA”, the “soluble on expression in E. coli” value is on record as “not soluble”.

In the case of “MCIGVPGQIRAIDGNQAKVDVCGIQRDVDLTLVGSCDENGQPRLGQWVLVHVGFAMSVINEAEARDTLDALQNMFDVEPDVGALLYGEER”, the “soluble on expression in E. coli” value was “not soluble”.

Regarding “MTIIKLERRDVRLLLLYEFRLGHSAMEAERNICGAMGEGALSYNTAKSWFQKFKNGDFSLEEIERSGRPVELNEEDLVKLVEEEPRLSLREMEEKLECCHSTIPRHLGRLGFTSKLGTWVPHELSASQKLTRVNVCTQLLTFRRKFDWLNNLVTGDEKWVLYVNHSRKRQWLPIGEKGIPTPKPDLHPKKIMICV”, the “soluble on expression in E. coli” value is on record as “soluble”.

On to “MSLKFAAGFVLIDAPHSALNMLGIDESLPDRNVTRVKTLRRGGNRYVYISPQAWRYWWRITLKEYFNWELSPLFREEKQVFTAANPIKYPDDDVFGYMRAYKKNKVNVTVTRISPLKNTPLVSVLPDRSSLTIDEGYASRHEGDPVPYSQEFYSTVLKGAFSLDLDLVGRFTTKNKAGYKNLLTRDDIPKKGKGEDIVKEIKELEELARNVGVEIKDGEWIMPKEIRKKRSIETIKALRYLTGGAKQTQYHTDVTPKLFLGIIVNGGINPFISDIVREEKGEIILDAEALATRLEDFSDIIDSKLFLGYDMGFVRSLGLEIEAIKSTAGIEVVEGKVGEIIEKFAEEAGKYYIEGHHHHHH”, for which the “soluble on expression in E. coli” value was “soluble”.

In the case of “MTTTEVKMFTFNSVAENTYILYDSTGEAALIDCGCMDGSEEQQLLRFVQEQQLTVKLLLNTHLHFDHAWGNGFAAKTFGLPVLTHRAEVEEMPSPSKQLAAFGMFGTMDEPPIQYIAPGDVLQLGESIIKVLFVPGHSPGHLAFYCPQAQAVFTGDALFAGDMGRTDLWGGSYELLKKSIRTELLPLPDDTVVYPGHGPTSTIAYERTNNPFLD”, the “soluble on expression in E. coli” value is on record as “not soluble”.

Take “MNKPNLENMNPNFPSSPPIDIISPFFPNILVLNSSSSIANAGVTMTAFTAASPNPITKLMLNLFREGNIESESARKPAIVVNAAPSNAFPVSEIASSAASSGDLPLFLSS”: the “soluble on expression in E. coli” value is recorded as “soluble”.

As to “MGSDKIHHHHHHMAEITSISQFLSTAKTQFQVYDLGRRVQHIDAMAFAQIEALQAPYPYPIQGHAKMALVFWDASEQHFVWFISLPLDERGLLSPAPRSHFIQMILEALGQDLTRTLSEDEQQKMANHPFSFKPTQEKLAVFNALVRRHLGRSASSQYEFAAQYLSGQLPAESWPNVGFQGLADICVRLGELDHAAMVARALKNAPMEVQIALCQCLEHVLVSDEVKDALLAGLEEHRDARLIYFLRALGSQSDASVRAIASLAEKRLLTEEVLICIAGRNWLALRDDVCRKNFLEALALMPQDFFNQVFADIVAIPALRTSMLMAIRDPNRSDALSLAIGGLFKATKS”, the “soluble on expression in E. coli” value is “not soluble”.

As to “QVINTFDGVADYLQTYHKLPDNYITKSEAQALGWVASKGNLADVAPGKSIGGDIFSNREGKLPGKSGRTWREADINYTSGFRNSDRILYSSDWLIYKTTDAYQTFTKIRSSSMGVCPKILKKCRRDSDCLAGCVCGPNGFCGS”, the “soluble on expression in E. coli” value is given as “soluble”.

Regarding “MGHHHHHHSHMVALSNALSRVFGSLAGYKFPSFIQKGINALYVKIFKIDLSEFEPLENYRSLNALFTRSLKKERPFDKSPNICIAPCDALITECAFLDNDSALQIKGMPYKAHELVGEINPLSPSFFYANFYLSPKDYHHYHAPCDLEILEARYFAGKLLPVNKPSLHKNNNLFVGNERVTLVAKDIQGNRLYFVAVGALNVGKMRFNFDKNIQTNAKARFTQTYSYNPPIKVKKGDNLGNFEMGSTIVLFIQNTAFKDLKEKNVKFGESIGEFHAN”, the “soluble on expression in E. coli” value is “not soluble”.

As to “MKKGVHLVFILVASLLSSFSVMAQSLQASVNKTEVAKNEVINLRIMADSEVASDAIDFSVLEKDFFLGQPRYGRSSNNINGRKYQRTEWSISIAPMKEGIITIPSFSADGMKTEPIQLKVTANKSAPDLDDLFSFNMSVDNHTLYPQQSANLRMQLIIKADTRRLDNPQVV”, the “soluble on expression in E. coli” value is given as “not soluble”.

As for “SGRLHCTEDPVPEAVGGDMQQLNQLGAQQFSALTEVLFHFLTEQKEVERFLAQLSEFATTNQISLGSLRSIVKSLLLVPNGALKKSLTAKQVQADFITLGLSEEKATYFSEKWKQNTPTLARWAIGQTLMINQLIDMEWKFGVTSGSSELEKVGSIFLQLKLVVKKGNQTKNVYIELTLPQFYSFLHEMERVRTSMECFC”, the “soluble on expression in E. coli” value is on record as “soluble”.

On to “MGSDKIHHHHHHMPQEPESGADLPSDRTAVFPTPEGPPLPKQVTLQAAKWLVMLQAPNTTQATRAKWQQWRDVHPDHERAWQHIEASATQMRAMHSPLAHGTLIRDDTEKRHARRRAIKLLGVIAFTGTSTWLLRDNPVWREWHADHRTATSERRTIVLADGTRIMLNTASIIDVHFDNAIRLVTLIRGEILVTTAPDSASGTGQPFIVETDQGRLRALGTRFAVRQRENDSHVSLFEGMVEIRPADASDQARVLQAGEQISFTRNAIETPQTIDTHAASWVTGMLVVQEMPLTDFIDELARYRPGYLSCDPELSHLKVSGIYPIEDTERVLDMLLHVHPIEIYSLTRYWVAIRARGDR”, for which the “soluble on expression in E. coli” value is listed as “not soluble”.

Consider “MRGIRDPRLIPIAEKVMEGKRLSFEDGLVLYQTKDLPTLMRLANLVRERKHGHKTYFVHSIRVSQTNICYVGCTFCAFQRRFGEEGAWDWDVDEVVAWVKERYQPGLTEIHLTAGHHPKRPFAYYLDLVRALKENFPGVQVKAWTAAEIHHFSKIARLPYREVLKALKEAGLDAMPGGGAEIFAERVRRKIARAKVSAEGWLEIHRTAHELGIPTNATMLYGHIETLEERLDHMDRLRRLQDETGGFMSFIPLAFQPDGNQLARELGKKEFTTGLDDLRNLAVARLYLDNFPHIKGYWATLTPELAQVSLDWGVTDVDGTLIEERIVHMAGSPTPQGLTKRELARIILMAGRIPVERDALYREVRVWDRVEA”, for which the “soluble on expression in E. coli” value is “soluble”.

In the case of “MITLTKKQMEEMLAHARQALPNEACGLLGGRRDGDDRWVERVYPLNNLDQSPEHFSMDPREQLTAVKDMRKNGWVMLGNFHSHPATPARPSAEDKRLAFDPSLSYLIISLAEPQKPVCKSFLIKKDGVDEEEIILKEELEHHHHHH”, the “soluble on expression in E. coli” value was “soluble”.

Regarding “MGSDKIHHHHHHMKTERLISYLRPGRWPSVWCPGCGNGIVLKAFLEAVDDLALPKEKVAVVSGIGCSSRATGYLDFNTLHTLHGRAIAFATGVKLAKPDFEVVVMGGDGDILSIGGNHFIHACRRNIDITVVIFNNMIYGMTGGQVSSTTPQYYQTSTTPLGAFEKPFDAVEIALSAGATFVARSTVYHYDHLVRVLKKALQHRGISVVDVLTNCHTYFGRYNGMPEPHQMMEYFKNNTCFLERPEEGKIKIGIFREEEKEDFLTVYRRLTRKEGAME”, the “soluble on expression in E. coli” value was “not soluble”.

“MGSDKIHHHHHHMKIGIVTFHRALNYGAVLQACAMRRIFSDHGEVEMVDYWPDYHSSHYSLLDTRFLNKNQSLSSRVRLLKSAIKRIILLPVRLKRNKKFLSFIDSNIVKVSNAPIKLANKIPDYFDVVVYGSDQIWRVYDFDNYPRPDMVYMGAGVLDGTRKIAFAASMGDVNVDTLCDDSVIKALKNFEHINVREQALSESLLKHSGLSSCVVLDPTFLVSSDVWKRMAETIPRNRKDNKYALFYSLIPSEESIRIAKNIAEEKGVELVEINGFETIGGLFNKSVAQSAGPLDFLELIMNAEFIVSTSFHGVVFSIIFEKQFCACGMKGHSERVRSLLSKLSIEDRLIDTVEQLESLGEIDYKEVTKLLAREIEHSKELLEYSLFE”: the “soluble on expression in E. coli” value is “not soluble”.

Consider “MPLCLKINKKHGEQTRRILIENNLLNKDYKITSEGNYLYLPIKDVDEDILKSILNIEFELVDKELEEKKIIKKPSFREIISKKYRKEIDEGLISLSYDVVGDLVILQISDEVDEKIRKEIGELAYKLIPCKGVFRRKSEVKGEFRVRELEHLAGENRTLTIHKENGYRLWVDIAKVYFSPRLGGERARIMKKVSLNDVVVDMFAGVGPFSIACKNAKKIYAIDINPHAIELLKKNIKLNKLEHKIIPILSDVREVDVKGNRVIMNLPKFAHKFIDKALDIVEEGGVIHYYTIGKDFDKAIKLFEKKCDCEVLEKRIVKSYAPREYILALDFKINKK”, for which the “soluble on expression in E. coli” value was “soluble”.

For “MGSDKIHHHHHHMTMPTNQCPWRMQVHHITQETPDVWTISLICHDYYPYRAGQYALVSVRNSAETLRAYTISSTPGVSEYITLTVRRIDDGVGSQWLTRDVKRGDYLWLSDAMGEFTCDDKAEDKFLLLAAGCGVTPIMSMRRWLAKNRPQADVRVIYNVRTPQDVIFADEWRNYPVTLVAENNVTEGFIAGRLTRELLAGVPDLASRTVMTCGPAPYMDWVEQEVKALGVTRFFKEKFFTPVAEAATSGLKFTKLQPAREFYAPVGTTLLEALESNNVPVVAACRAGVCGCCKTKVVSGEYTVSSTMTLTDAEIAEGYVLACSCHPQGDLVLA”, the “soluble on expression in E. coli” value is reported as “not soluble”.

Regarding “MTSPMTSKDSKLTLAEKVWRDHVVSQGEGDQPDLIFIDLQLLHEVTSPQAFDGLRMAGRTLRHPELHLATEDHNVPTEGIHNGSLLEINDLVSRTQVETLRKNCEEFGVRLHAMGDKKQGIVHQVGPQLGATQPGMTIVCGDSHTSTHGAFGAMAFGIGTSEVEHVMATQTLSLKPFKTMAINVTGELQPGVTAKD”, the “soluble on expression in E. coli” value is “not soluble”.

For “MGSDKIHHHHHHMNDIIKLIKSIIIEMDMEAYIVGGYIRDKLMNPKNSASDLDIAFQGDFEKILDELRKRKIKVSSIKKDSSVYRITVNGYCADISKIKGKNINEDLSKRDFTVNAIALDIKNNKIVDPFDGRVHIKRRILQVIDEKSFEDDAVRILRGIRFYIKYGMHFNGYTEEYIRKHSKNIMKFPRDRVLDEIIHIIHEDENGVFFEVMDQYMILKNILPYMEELKTVGKCKHHLVDAFTHMNTAYHVFKDMKKKYLKVKNINIEEFNKDIGVYNELDYLAFAIFTHDIGKYVSYKKEGQKISFKGHDEKGLEIIEKVCDELKFPNDGKKIVCSVVKNHMYPLMLFKLKEDERKQEEYEFFNKFDQYVPHIIVASFCDVYATTIYIDENNEKDRFTSFISELVVKYREFINLKKIKYIDGNDLIDMGFRGNDIGNILNELNKMLYIEGSKTKKEQQDFVLRMKDKL”, the “soluble on expression in E. coli” value is listed as “not soluble”.

Consider “SNAMTQFAFVFPGQGSQSVGMLAEMAANYPIVEETFAEASAALGYDLWALTQQGPAEELNKTWQTQPALLTASVALWRVWQQQGGKMPALMAGHSLGEYSALVCAGVINFADAVRLVEMRGKFMQEAVPEGTGGMSAIIGLDDASIAKACEESAEGQVVSPVNFNSPGQVVIAGHKEAVERAGAACKAAGAKRALPLPVSVPSHCALMKPAADKLAVELAKITFSAPTVPVVNNVDVKCETDAAAIRDALVRQLYNPVQWTKSVEFIAAQGVEHLYEVGPGKVLTGLTKRIVDTLTASALNEPAALSAALTQ”, for which the “soluble on expression in E. coli” value is given as “soluble”.

On to “MGSDKIHHHHHHMNKVLNKESAPAYRLTPEWELYTSVVTTSLNNSFYEQEEERIERVRTLIGKCNPLFVAQLAAYARETMNLRSIPLVMAVELARIHQGDNLVKRVTARTVRRADEITELLACYQQANRRTGTKKLNRLSKQLQAGLQDAFNTFDAYQFAKYNRSAEVCLKDALFLVHPKAKDERQQEIFNGIVNDNLPVPYTWETELSALGQRTFATEEERRKAFRAKWEELIDSGKLGYMALLRNLRNILEAEVSADHILTVGKRLSSEKAVENSRQLPFRFLAAYRELSKTPSLYATMLMTALERAVQVSARNITGFDESTRVLIACDVSGSMQCPVSAKSKVLYYDIGLLLGMLLKSRCKQVMTGIFGDRWKIINLPDTGILSNVDAFYKREGEVGYSTNGYLVIKDLIDRKAQMDKIMMFTDCQLWNSHSDLQITDLWRKYKKICPAAKLYLFDLSGYGNTPLDITRDDVFLIAGWSDKIFDILSAIDKGNDALQEIKKIVV”, for which the “soluble on expression in E. coli” value is listed as “not soluble”.
